From PMC10535226, “Rapid SERS Detection of Botulinum Neurotoxin Type A”
Like-named read-outs stand apart in the source and are kept apart here.

Assays:
[1] = biological target: T1, Botulinum neurotoxin type A (Xeomin) (Clostridium botulinum serotype A, UniProt P0DPI1 2-1296); assay: BLI; conditions: protein: commercial
T1 sequence (P0DPI1 2-1296): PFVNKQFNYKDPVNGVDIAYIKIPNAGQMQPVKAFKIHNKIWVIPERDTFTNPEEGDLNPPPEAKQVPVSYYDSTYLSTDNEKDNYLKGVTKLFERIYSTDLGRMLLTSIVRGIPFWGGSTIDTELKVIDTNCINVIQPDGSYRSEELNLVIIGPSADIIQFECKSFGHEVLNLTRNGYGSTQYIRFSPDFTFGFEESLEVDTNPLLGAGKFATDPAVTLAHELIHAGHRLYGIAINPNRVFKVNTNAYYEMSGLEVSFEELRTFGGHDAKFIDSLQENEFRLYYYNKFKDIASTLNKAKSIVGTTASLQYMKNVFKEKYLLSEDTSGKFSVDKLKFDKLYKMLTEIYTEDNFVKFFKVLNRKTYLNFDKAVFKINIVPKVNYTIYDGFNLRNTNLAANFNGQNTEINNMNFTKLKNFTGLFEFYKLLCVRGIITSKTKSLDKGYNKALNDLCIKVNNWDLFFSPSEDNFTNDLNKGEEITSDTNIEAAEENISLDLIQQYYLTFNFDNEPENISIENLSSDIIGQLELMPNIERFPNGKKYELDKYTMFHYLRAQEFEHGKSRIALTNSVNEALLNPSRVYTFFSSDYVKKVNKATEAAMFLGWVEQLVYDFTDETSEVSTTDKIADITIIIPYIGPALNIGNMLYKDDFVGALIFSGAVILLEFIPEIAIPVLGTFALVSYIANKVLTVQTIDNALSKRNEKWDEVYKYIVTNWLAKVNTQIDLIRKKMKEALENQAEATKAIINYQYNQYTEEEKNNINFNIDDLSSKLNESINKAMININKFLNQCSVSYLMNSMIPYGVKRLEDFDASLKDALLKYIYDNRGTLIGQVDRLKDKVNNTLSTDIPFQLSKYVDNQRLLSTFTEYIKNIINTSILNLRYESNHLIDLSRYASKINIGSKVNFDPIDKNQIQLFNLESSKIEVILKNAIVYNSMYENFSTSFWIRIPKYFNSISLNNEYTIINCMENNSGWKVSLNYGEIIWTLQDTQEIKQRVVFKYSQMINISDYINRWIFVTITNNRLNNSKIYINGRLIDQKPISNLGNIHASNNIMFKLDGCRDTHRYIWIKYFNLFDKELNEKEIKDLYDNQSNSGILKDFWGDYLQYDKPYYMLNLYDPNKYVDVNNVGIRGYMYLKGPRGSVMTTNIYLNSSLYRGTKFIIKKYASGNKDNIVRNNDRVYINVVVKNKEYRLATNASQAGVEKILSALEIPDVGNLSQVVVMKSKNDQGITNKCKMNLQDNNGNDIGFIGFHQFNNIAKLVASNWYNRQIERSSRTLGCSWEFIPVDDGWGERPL

[2] = biological target: Botulinum neurotoxin type A (Xeomin) (Clostridium botulinum serotype A, UniProt P0DPI1 2-1296); assay: SERS aptasensor; conditions: protein: commercial; label: 3' TAMRA
Target sequence in this assay (P0DPI1 2-1296): as above

[3] = biological target: T1, Botulinum neurotoxin type A (Xeomin)

B1: Apt_2.22 (structured_DNA)
DNA: ATACCAGCTTATTCAATTGACATGACTGGGATTTTTGGCGAAATCGAAGGAAGCGGAGAGATAGTAAGTGCAATCT
Kd [1]: 7 ± 4 nM

B2: Apt_2.22_mod (structured_DNA)
DNA: B1 DNA
modifications: 5' SH-(CH2)6
binding result [2]: binds

B3: SH-H8-TAMRA (ssDNA)
DNA: AGTGCGGTGAGCCGTCGGACATACAAATAC
binding result [3]: no binding
